# In PMC5693891:
# Columns and labels:
# [1] = target: soluble human neonatal Fc receptor (FcRn) (human) (UniProt P55899); assay: BLI; Octet-Red96, biotin-labeled human FcRn on streptavidin tips, Fc proteins 10 to 0.625 µM as analytes, PBS with 0.02% Tween 20, pH 6.0, 37°C, 1:1 model
# [2] = target: FcRn (Homo sapiens) (UniProt P55899); settings: cited from earlier work
# [3] = target: mFc (previously reported monomeric IgG1 Fc) L351S;T366R;L368H;P395K (UniProt P01857); assay: Bio-layer interferometry (Octet-Red96, Pall ForteBio); settings: pH 6.0; 37°C; PBS (composition not stated); PBS adjusted to pH 6.0 or pH 7.4 (same buffer at both pH)
# [4] = target: wild-type IgG1 Fc (dimeric) (UniProt P01857); assay: as above; settings: pH 6.0; 37°C; PBS (composition not stated); PBS adjusted to pH 6.0 or pH 7.4 (same buffer at both pH)
# [5] = target: 1-D1-15 (Fc mutant, monomer/dimer mixture) T366H; Leu368 unchanged; Leu351 not mutated to Ser; position 395 is Lys or Arg by library design; residues at 409, 428 and 434 not stated in the text (Figure 2B only) (UniProt P01857); assay: as above; settings: pH 6.0; 37°C; PBS (composition not stated); PBS adjusted to pH 6.0 or pH 7.4 (same buffer at both pH)
# [6] = target: 1-B10-9 (new monomeric IgG1 Fc) T366R;L368H;P395K;K409T;M428L (UniProt P01857); assay: as above; settings: pH 6.0; 37°C; PBS (composition not stated); PBS adjusted to pH 6.0 or pH 7.4 (same buffer at both pH)
# soluble human neonatal Fc receptor (FcRn) (human), sequence (P55899 24-297, chain 1 of 2): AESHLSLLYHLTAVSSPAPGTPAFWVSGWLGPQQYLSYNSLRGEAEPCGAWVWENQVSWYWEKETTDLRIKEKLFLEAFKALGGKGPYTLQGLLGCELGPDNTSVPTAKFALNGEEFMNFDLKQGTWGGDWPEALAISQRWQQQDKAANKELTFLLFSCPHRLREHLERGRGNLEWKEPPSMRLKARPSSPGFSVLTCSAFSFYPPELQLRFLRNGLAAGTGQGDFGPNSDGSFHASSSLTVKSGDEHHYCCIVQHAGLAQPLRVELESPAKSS
# soluble human neonatal Fc receptor (FcRn) (human), sequence (P61769 21-119, chain 2 of 2, further chain): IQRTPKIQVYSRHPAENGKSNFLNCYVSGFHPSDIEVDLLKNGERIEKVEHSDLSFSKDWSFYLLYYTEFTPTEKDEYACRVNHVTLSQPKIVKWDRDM
# FcRn (Homo sapiens), sequence (P55899 24-365, chain 1 of 2): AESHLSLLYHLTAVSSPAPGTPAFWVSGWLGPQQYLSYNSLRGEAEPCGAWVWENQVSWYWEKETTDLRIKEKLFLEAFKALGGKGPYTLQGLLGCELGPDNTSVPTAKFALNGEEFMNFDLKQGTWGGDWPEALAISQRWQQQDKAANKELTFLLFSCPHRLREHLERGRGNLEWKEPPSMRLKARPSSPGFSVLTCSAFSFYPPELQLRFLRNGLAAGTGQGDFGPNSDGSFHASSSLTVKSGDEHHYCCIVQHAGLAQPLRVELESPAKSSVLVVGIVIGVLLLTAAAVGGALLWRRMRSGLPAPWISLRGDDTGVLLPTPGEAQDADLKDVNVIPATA
# FcRn (Homo sapiens), sequence (partner, as listed by the source, chain 2 of 2): as the sequence (P61769 21-119, chain 2 of 2, further chain) above
substance,measurement,setting,value
wild-type dimeric IgG1 Fc (domain or fragment),Kd,[1],260 nM
same,koff,[1],0.0003 s⁻¹
same,kon,[1],1100 M⁻¹ s⁻¹
IgG1 Fc Fc (from UniProt P01857),Kd,[2],110 nM
"neonatal Fc receptor (FcRn), soluble, biotinylated",koff,[3],0.00064 s⁻¹
same,kon,[3],1200 M⁻¹ s⁻¹
same,koff,[4],0.0003 s⁻¹
same,kon,[4],1100 M⁻¹ s⁻¹
same,kon,[5],3800 M⁻¹ s⁻¹
same,koff,[6],0.00056 s⁻¹
same,kon,[6],1100 M⁻¹ s⁻¹
